Measurements as given in patent US7067646 (Dana-Farber, dated 2006).
Each block holds one binder with its values, some of them ahead of it.

Tests used:
[1] = target: T1, MTAF600 (microtubule associated factor 600) (human, UniProt Q5T4S7 1-5183); test: GST pull-down from HeLa nuclear extract, immunoblot
T1 construct: Native endogenous protein of HeLa nuclear extracts (5183 residues); also called MT-associated factor (MTAF) 600; 600 kDa subunit

[2] = target: T1, MTAF600 (microtubule associated factor …); test: anti-FLAG immunoprecipitation of f:RB from HeLa nuclear extract, SDS-PAGE
[3] = target: endogenous RB family proteins; test: cell-based or functional assay
[4] = target: T1, MTAF600 (microtubule associated factor …); test: co-immunoprecipitation from HeLa extract, immunoblot
[5] = target: T1, MTAF600 (microtubule associated factor …); test: MTAF600 immobilised on matrix incubated with GST-RB, immunoblot

T1 sequence (Q5T4S7 other isoform, or with tags, fused parts or gaps limits assumed): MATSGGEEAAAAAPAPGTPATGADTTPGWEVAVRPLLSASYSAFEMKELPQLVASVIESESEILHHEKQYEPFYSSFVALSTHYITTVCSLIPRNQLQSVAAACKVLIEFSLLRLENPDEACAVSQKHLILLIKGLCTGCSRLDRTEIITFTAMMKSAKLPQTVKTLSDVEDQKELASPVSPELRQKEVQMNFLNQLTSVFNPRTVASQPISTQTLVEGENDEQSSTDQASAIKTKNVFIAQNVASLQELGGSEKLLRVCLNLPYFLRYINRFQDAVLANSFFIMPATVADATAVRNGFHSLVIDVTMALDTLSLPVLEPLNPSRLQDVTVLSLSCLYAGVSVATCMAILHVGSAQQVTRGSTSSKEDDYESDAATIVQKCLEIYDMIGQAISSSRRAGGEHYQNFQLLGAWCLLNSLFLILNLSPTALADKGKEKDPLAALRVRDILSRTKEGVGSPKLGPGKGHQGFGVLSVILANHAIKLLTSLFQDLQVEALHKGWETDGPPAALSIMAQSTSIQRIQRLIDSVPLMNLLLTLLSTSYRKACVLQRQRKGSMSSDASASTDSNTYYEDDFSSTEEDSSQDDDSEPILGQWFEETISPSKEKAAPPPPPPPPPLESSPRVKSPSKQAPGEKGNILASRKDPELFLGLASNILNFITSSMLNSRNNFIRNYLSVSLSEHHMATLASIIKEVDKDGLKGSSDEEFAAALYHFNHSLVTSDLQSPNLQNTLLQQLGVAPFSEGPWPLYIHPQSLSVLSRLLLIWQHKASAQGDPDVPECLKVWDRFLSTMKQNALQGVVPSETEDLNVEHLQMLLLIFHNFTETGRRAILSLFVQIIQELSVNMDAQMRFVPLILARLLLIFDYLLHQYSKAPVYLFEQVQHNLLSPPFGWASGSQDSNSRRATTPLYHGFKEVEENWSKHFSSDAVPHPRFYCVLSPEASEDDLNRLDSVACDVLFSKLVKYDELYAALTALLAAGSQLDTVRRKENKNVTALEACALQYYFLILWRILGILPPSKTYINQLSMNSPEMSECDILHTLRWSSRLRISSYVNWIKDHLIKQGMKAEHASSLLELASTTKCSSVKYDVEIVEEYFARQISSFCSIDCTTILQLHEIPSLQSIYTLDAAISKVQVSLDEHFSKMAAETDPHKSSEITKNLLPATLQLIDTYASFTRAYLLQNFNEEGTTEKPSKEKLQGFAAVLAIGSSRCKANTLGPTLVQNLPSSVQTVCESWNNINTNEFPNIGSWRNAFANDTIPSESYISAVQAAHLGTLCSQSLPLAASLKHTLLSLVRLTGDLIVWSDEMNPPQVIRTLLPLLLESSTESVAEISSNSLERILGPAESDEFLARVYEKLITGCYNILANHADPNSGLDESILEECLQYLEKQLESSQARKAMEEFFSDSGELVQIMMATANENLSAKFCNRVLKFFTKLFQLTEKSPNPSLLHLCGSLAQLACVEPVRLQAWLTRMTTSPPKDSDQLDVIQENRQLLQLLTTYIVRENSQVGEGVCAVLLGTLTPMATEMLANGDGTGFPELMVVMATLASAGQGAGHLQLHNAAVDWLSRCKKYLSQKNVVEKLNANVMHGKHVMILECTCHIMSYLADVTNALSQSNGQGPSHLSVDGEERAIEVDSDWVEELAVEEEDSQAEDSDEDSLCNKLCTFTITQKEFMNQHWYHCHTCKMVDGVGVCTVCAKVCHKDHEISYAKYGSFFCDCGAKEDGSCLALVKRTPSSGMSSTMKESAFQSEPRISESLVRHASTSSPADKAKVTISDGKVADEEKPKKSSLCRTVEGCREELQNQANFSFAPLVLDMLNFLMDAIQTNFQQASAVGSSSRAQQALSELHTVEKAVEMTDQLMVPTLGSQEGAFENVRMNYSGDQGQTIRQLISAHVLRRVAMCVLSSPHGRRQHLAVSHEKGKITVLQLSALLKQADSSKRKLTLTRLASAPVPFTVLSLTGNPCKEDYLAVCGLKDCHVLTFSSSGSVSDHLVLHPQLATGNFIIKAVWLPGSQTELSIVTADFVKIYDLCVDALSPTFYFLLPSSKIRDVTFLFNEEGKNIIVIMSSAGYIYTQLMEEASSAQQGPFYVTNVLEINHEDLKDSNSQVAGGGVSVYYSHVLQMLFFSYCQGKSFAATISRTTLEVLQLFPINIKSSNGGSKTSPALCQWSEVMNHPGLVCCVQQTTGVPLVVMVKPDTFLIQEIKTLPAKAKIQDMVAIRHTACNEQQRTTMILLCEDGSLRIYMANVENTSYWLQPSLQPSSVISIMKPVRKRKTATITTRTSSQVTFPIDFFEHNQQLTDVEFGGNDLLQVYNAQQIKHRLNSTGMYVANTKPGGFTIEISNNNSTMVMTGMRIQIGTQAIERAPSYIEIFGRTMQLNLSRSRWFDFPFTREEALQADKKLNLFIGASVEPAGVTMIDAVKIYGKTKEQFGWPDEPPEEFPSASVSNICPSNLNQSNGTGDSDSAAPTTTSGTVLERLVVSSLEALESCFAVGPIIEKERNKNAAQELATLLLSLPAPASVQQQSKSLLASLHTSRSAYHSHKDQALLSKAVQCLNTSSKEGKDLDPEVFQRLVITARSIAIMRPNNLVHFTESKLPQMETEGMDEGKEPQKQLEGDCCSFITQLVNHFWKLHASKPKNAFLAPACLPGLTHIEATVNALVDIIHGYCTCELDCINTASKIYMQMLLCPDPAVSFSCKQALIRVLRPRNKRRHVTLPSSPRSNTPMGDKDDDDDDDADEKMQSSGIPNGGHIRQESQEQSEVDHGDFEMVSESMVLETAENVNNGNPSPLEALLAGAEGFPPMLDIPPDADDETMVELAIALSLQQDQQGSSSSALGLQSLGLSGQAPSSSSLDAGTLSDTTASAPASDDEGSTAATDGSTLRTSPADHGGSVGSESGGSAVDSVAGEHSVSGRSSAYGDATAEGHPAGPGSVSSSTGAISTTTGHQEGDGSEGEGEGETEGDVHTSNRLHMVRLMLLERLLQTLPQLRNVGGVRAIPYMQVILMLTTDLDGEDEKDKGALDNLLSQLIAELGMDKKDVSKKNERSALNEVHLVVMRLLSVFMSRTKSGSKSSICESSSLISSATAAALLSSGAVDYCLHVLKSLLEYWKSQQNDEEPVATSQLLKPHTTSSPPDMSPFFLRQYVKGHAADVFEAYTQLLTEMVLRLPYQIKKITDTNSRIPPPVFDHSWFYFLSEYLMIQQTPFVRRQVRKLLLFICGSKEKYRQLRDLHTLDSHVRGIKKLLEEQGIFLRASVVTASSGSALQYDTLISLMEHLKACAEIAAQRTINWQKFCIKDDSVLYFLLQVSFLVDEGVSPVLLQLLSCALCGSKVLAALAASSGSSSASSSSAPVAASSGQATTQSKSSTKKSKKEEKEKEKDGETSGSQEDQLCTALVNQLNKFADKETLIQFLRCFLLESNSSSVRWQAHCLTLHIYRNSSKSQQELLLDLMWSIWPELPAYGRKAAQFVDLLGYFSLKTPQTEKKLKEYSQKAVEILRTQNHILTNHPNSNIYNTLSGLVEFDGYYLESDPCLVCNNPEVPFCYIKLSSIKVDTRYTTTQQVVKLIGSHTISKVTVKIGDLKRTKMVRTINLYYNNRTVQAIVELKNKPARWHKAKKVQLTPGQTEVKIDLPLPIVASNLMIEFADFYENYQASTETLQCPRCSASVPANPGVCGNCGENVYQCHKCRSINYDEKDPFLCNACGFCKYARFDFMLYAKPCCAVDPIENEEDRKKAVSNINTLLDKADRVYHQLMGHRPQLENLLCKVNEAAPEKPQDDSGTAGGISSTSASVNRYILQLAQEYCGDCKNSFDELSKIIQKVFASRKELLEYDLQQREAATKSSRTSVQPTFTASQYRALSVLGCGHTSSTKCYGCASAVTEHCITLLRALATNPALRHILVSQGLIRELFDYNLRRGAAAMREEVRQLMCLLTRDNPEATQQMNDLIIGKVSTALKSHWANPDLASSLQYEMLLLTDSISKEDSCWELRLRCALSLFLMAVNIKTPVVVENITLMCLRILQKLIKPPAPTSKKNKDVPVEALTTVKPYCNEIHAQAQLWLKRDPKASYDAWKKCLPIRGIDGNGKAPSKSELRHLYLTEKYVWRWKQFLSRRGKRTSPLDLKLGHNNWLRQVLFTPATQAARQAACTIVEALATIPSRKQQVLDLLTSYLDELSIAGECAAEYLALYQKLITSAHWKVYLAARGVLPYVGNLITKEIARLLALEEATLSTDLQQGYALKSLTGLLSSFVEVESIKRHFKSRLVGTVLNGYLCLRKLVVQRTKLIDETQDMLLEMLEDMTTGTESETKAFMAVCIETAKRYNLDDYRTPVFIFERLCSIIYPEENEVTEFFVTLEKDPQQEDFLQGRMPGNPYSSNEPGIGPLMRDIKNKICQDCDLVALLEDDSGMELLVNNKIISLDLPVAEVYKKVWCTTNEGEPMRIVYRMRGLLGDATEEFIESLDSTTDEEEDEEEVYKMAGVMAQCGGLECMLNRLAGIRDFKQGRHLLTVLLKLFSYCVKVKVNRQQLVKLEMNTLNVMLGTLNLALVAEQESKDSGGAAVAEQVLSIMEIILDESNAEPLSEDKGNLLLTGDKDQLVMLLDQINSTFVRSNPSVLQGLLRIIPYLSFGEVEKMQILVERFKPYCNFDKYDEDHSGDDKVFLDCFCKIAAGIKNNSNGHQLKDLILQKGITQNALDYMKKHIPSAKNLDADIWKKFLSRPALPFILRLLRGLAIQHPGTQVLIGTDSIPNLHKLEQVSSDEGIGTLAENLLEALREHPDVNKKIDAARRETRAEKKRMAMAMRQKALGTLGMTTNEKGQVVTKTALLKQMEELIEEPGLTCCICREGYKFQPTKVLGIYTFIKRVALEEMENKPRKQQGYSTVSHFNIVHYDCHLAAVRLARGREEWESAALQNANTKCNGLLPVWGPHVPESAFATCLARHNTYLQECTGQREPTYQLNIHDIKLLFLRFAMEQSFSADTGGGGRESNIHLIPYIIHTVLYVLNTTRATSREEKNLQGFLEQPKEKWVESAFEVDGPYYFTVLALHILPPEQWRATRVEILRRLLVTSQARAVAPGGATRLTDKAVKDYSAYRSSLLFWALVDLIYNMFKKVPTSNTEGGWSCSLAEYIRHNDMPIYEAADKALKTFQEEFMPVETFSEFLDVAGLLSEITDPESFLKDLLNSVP

- binding result [1]: no binding
B1: GST-RB (379-646) (other, UniProt P06400 379-646, looked up)
chain: MNTIQQLMMILNSASDQPSENLISYFNNCTVNPKESILKRVKDIGYIFKEKFAKAVGQGCVEIGSQRYKLGVRLYYRVMESMLKSEEERLSIQNFSKLLNDNIFHMSLLACALEVVMATYSRSTSQNLDSGTDLSFPWILNVLNLKAFDFYKVIESFIKAEGNLTREMIKHLERCEHRIMESLAWLSDSPLFDLIKQSKDREGPTDHLESACPLNLPLQNNHTAADMYLSPVRSPKKKGSTTRVNSTANAETQATSAFQTQKPLKSTS
notes: Expressed in E. coli; not shown: glutathione S-transferase (GST) fusion partner of vector pGEX6P-1

- binding result [1]: no binding
B2: GST-RB (379-772) (other, UniProt P06400 379-772, looked up)
chain: MNTIQQLMMILNSASDQPSENLISYFNNCTVNPKESILKRVKDIGYIFKEKFAKAVGQGCVEIGSQRYKLGVRLYYRVMESMLKSEEERLSIQNFSKLLNDNIFHMSLLACALEVVMATYSRSTSQNLDSGTDLSFPWILNVLNLKAFDFYKVIESFIKAEGNLTREMIKHLERCEHRIMESLAWLSDSPLFDLIKQSKDREGPTDHLESACPLNLPLQNNHTAADMYLSPVRSPKKKGSTTRVNSTANAETQATSAFQTQKPLKSTSLSLFYKKVYRLAYLRLNTLCERLLSEHPELEHIIWTLFQHTLQNEYELMRDRHLDQIMMCSMYGICKVKNIDLKFKIIVTAYKDLPHAVQETFKRVLIKEEEYDSIIVFYNSVFMQRLKTNILQYA
notes: as for B1

- binding result [1]: no binding
B5: GST-RB (646-928) (other, UniProt P06400 646-928, looked up)
chain: SLSLFYKKVYRLAYLRLNTLCERLLSEHPELEHIIWTLFQHTLQNEYELMRDRHLDQIMMCSMYGICKVKNIDLKFKIIVTAYKDLPHAVQETFKRVLIKEEEYDSIIVFYNSVFMQRLKTNILQYASTRPPTLSPIPHIPRSPYKFPSSPLRIPGGNIYISPLKSPYKISEGLPTPTKMTPRSRILVSIGESFGTSEKFQKINQMVCNSDRVLKRSAEGSNPPKPLKKLRFDIEGSDEADGSKHLPGESKFQQKLAEMTSTRTRMQKQKMNDSMDTSNKEEK
notes: as for B1

- binding result [5]: binds
B8: GST-RB (379-928) (other, UniProt P06400 379-928, looked up)
chain: MNTIQQLMMILNSASDQPSENLISYFNNCTVNPKESILKRVKDIGYIFKEKFAKAVGQGCVEIGSQRYKLGVRLYYRVMESMLKSEEERLSIQNFSKLLNDNIFHMSLLACALEVVMATYSRSTSQNLDSGTDLSFPWILNVLNLKAFDFYKVIESFIKAEGNLTREMIKHLERCEHRIMESLAWLSDSPLFDLIKQSKDREGPTDHLESACPLNLPLQNNHTAADMYLSPVRSPKKKGSTTRVNSTANAETQATSAFQTQKPLKSTSLSLFYKKVYRLAYLRLNTLCERLLSEHPELEHIIWTLFQHTLQNEYELMRDRHLDQIMMCSMYGICKVKNIDLKFKIIVTAYKDLPHAVQETFKRVLIKEEEYDSIIVFYNSVFMQRLKTNILQYASTRPPTLSPIPHIPRSPYKFPSSPLRIPGGNIYISPLKSPYKISEGLPTPTKMTPRSRILVSIGESFGTSEKFQKINQMVCNSDRVLKRSAEGSNPPKPLKKLRFDIEGSDEADGSKHLPGESKFQQKLAEMTSTRTRMQKQKMNDSMDTSNKEEK
notes: Expressed in E. coli; also called large pocket domain of RB as GST fusion; not shown: glutathione S-transferase (GST) fusion partner of vector pGEX6P-1

More lines, now with the values behind:

B3: FLAG-epitope-tagged RB (tag at the N-terminus) (other, UniProt P06400 1-928, looked up, not shown: small tags and cut ends)
chain: MPPKTPRKTAATAAAAAAEPPAPPPPPPPEEDPEQDSGPEDLPLVRLEFEETEEPDFTALCQKLKIPDHVRERAWLTWEKVSSVDGVLGGYIQKKKELWGICIFIAAVDLDEMSFTFTELQKNIEISVHKFFNLLKEIDTSTKVDNAMSRLLKKYDVLFALFSKLERTCELIYLTQPSSSISTEINSALVLKVSWITFLLAKGEVLQMEDDLVISFQLMLCVLDYFIKLSPPMLLKEPYKTAVIPINGSPRTPRRGQNRSARIAKQLENDTRIIEVLCKEHECNIDEVKNVYFKNFIPFMNSLGLVTSNGLPEVENLSKRYEEIYLKNKDLDARLFLDHDKTLQTDSIDSFETQRTPRKSNLDEEVNVIPPHTPVRTVMNTIQQLMMILNSASDQPSENLISYFNNCTVNPKESILKRVKDIGYIFKEKFAKAVGQGCVEIGSQRYKLGVRLYYRVMESMLKSEEERLSIQNFSKLLNDNIFHMSLLACALEVVMATYSRSTSQNLDSGTDLSFPWILNVLNLKAFDFYKVIESFIKAEGNLTREMIKHLERCEHRIMESLAWLSDSPLFDLIKQSKDREGPTDHLESACPLNLPLQNNHTAADMYLSPVRSPKKKGSTTRVNSTANAETQATSAFQTQKPLKSTSLSLFYKKVYRLAYLRLNTLCERLLSEHPELEHIIWTLFQHTLQNEYELMRDRHLDQIMMCSMYGICKVKNIDLKFKIIVTAYKDLPHAVQETFKRVLIKEEEYDSIIVFYNSVFMQRLKTNILQYASTRPPTLSPIPHIPRSPYKFPSSPLRIPGGNIYISPLKSPYKISEGLPTPTKMTPRSRILVSIGESFGTSEKFQKINQMVCNSDRVLKRSAEGSNPPKPLKKLRFDIEGSDEADGSKHLPGESKFQQKLAEMTSTRTRMQKQKMNDSMDTSNKEEK
notes: also called f:RB; f: RB
- binding result [2]: binds

B4: FLAG-tagged MTAF600 (3910-4851), Q5T4S7 3910-4851 (protein)
chain: FDYNLRRGAAAMREEVRQLMCLLTRDNPEATQQMNDLIIGKVSTALKSHWANPDLASSLQYEMLLLTDSISKEDSCWELRLRCALSLFLMAVNIKTPVVVENITLMCLRILQKLIKPPAPTSKKNKDVPVEALTTVKPYCNEIHAQAQLWLKRDPKASYDAWKKCLPIRGIDGNGKAPSKSELRHLYLTEKYVWRWKQFLSRRGKRTSPLDLKLGHNNWLRQVLFTPATQAARQAACTIVEALATIPSRKQQVLDLLTSYLDELSIAGECAAEYLALYQKLITSAHWKVYLAARGVLPYVGNLITKEIARLLALEEATLSTDLQQGYALKSLTGLLSSFVEVESIKRHFKSRLVGTVLNGYLCLRKLVVQRTKLIDETQDMLLEMLEDMTTGTESETKAFMAVCIETAKRYNLDDYRTPVFIFERLCSIIYPEENEVTEFFVTLEKDPQQEDFLQGRMPGNPYSSNEPGIGPLMRDIKNKICQDCDLVALLEDDSGMELLVNNKIISLDLPVAEVYKKVWCTTNEGEPMRIVYRMRGLLGDATEEFIESLDSTTDEEEDEEEVYKMAGVMAQCGGLECMLNRLAGIRDFKQGRHLLTVLLKLFSYCVKVKVNRQQLVKLEMNTLNVMLGTLNLALVAEQESKDSGGAAVAEQVLSIMEIILDESNAEPLSEDKGNLLLTGDKDQLVMLLDQINSTFVRSNPSVLQGLLRIIPYLSFGEVEKMQILVERFKPYCNFDKYDEDHSGDDKVFLDCFCKIAAGIKNNSNGHQLKDLILQKGITQNALDYMKKHIPSAKNLDADIWKKFLSRPALPFILRLLRGLAIQHPGTQVLIGTDSIPNLHKLEQVSSDEGIGTLAENLLEALREHPDVNKKIDAARRETRAEKKRMAMAMRQKALGTLGMTTNEKGQVVTKTALLKQMEELIEEPGLTCCICREGYKFQPTK
- cells in S-phase at 24 hr after replating (FACS, stably transfected U2OS cells; control cells 64%) [3]: 37%

B6: hypophosphorylated RB (other, human, UniProt P06400 2-928, looked up)
chain: PPKTPRKTAATAAAAAAEPPAPPPPPPPEEDPEQDSGPEDLPLVRLEFEETEEPDFTALCQKLKIPDHVRERAWLTWEKVSSVDGVLGGYIQKKKELWGICIFIAAVDLDEMSFTFTELQKNIEISVHKFFNLLKEIDTSTKVDNAMSRLLKKYDVLFALFSKLERTCELIYLTQPSSSISTEINSALVLKVSWITFLLAKGEVLQMEDDLVISFQLMLCVLDYFIKLSPPMLLKEPYKTAVIPINGSPRTPRRGQNRSARIAKQLENDTRIIEVLCKEHECNIDEVKNVYFKNFIPFMNSLGLVTSNGLPEVENLSKRYEEIYLKNKDLDARLFLDHDKTLQTDSIDSFETQRTPRKSNLDEEVNVIPPHTPVRTVMNTIQQLMMILNSASDQPSENLISYFNNCTVNPKESILKRVKDIGYIFKEKFAKAVGQGCVEIGSQRYKLGVRLYYRVMESMLKSEEERLSIQNFSKLLNDNIFHMSLLACALEVVMATYSRSTSQNLDSGTDLSFPWILNVLNLKAFDFYKVIESFIKAEGNLTREMIKHLERCEHRIMESLAWLSDSPLFDLIKQSKDREGPTDHLESACPLNLPLQNNHTAADMYLSPVRSPKKKGSTTRVNSTANAETQATSAFQTQKPLKSTSLSLFYKKVYRLAYLRLNTLCERLLSEHPELEHIIWTLFQHTLQNEYELMRDRHLDQIMMCSMYGICKVKNIDLKFKIIVTAYKDLPHAVQETFKRVLIKEEEYDSIIVFYNSVFMQRLKTNILQYASTRPPTLSPIPHIPRSPYKFPSSPLRIPGGNIYISPLKSPYKISEGLPTPTKMTPRSRILVSIGESFGTSEKFQKINQMVCNSDRVLKRSAEGSNPPKPLKKLRFDIEGSDEADGSKHLPGESKFQQKLAEMTSTRTRMQKQKMNDSMDTSNKEEK
modifications: hypophosphorylated (sites not given)
notes: also called RB (hypo-phosphorylated)
- binding result [4]: binds

B7: hyperphosphorylated RB (other, human, UniProt P06400 2-928, looked up)
chain: PPKTPRKTAATAAAAAAEPPAPPPPPPPEEDPEQDSGPEDLPLVRLEFEETEEPDFTALCQKLKIPDHVRERAWLTWEKVSSVDGVLGGYIQKKKELWGICIFIAAVDLDEMSFTFTELQKNIEISVHKFFNLLKEIDTSTKVDNAMSRLLKKYDVLFALFSKLERTCELIYLTQPSSSISTEINSALVLKVSWITFLLAKGEVLQMEDDLVISFQLMLCVLDYFIKLSPPMLLKEPYKTAVIPINGSPRTPRRGQNRSARIAKQLENDTRIIEVLCKEHECNIDEVKNVYFKNFIPFMNSLGLVTSNGLPEVENLSKRYEEIYLKNKDLDARLFLDHDKTLQTDSIDSFETQRTPRKSNLDEEVNVIPPHTPVRTVMNTIQQLMMILNSASDQPSENLISYFNNCTVNPKESILKRVKDIGYIFKEKFAKAVGQGCVEIGSQRYKLGVRLYYRVMESMLKSEEERLSIQNFSKLLNDNIFHMSLLACALEVVMATYSRSTSQNLDSGTDLSFPWILNVLNLKAFDFYKVIESFIKAEGNLTREMIKHLERCEHRIMESLAWLSDSPLFDLIKQSKDREGPTDHLESACPLNLPLQNNHTAADMYLSPVRSPKKKGSTTRVNSTANAETQATSAFQTQKPLKSTSLSLFYKKVYRLAYLRLNTLCERLLSEHPELEHIIWTLFQHTLQNEYELMRDRHLDQIMMCSMYGICKVKNIDLKFKIIVTAYKDLPHAVQETFKRVLIKEEEYDSIIVFYNSVFMQRLKTNILQYASTRPPTLSPIPHIPRSPYKFPSSPLRIPGGNIYISPLKSPYKISEGLPTPTKMTPRSRILVSIGESFGTSEKFQKINQMVCNSDRVLKRSAEGSNPPKPLKKLRFDIEGSDEADGSKHLPGESKFQQKLAEMTSTRTRMQKQKMNDSMDTSNKEEK
modifications: hyperphosphorylated (sites not given)
notes: also called P-RB
- binding result [4]: binds
